Test results published in patent US20230181714A1.

B1: VEE-81 (antibody, V domains shown)
VH: QVQLVQSGAEVKKPGASVKVSCKASGYTFTTYYIHWVRQAPGRGLEWMGIINSSGYNTYYAQKFQGRVTMTRDTSTSTVDMELSSLRSEDTAVYYCATSITTRAFDLWGQGTLVTVSS
VL: EIVLTQSPGTLSLSPGERVTLSCRASQSVSSIYLAWYQQRPGQAPRLLIYGASSRATGIPDRFSGSGSGTDFTLTIRRLEPEDFAVYYCQQYGSSPYTFGQGTKLEIK
B2: VEE-52B (antibody, V domains shown)
VH: QVHLLQSGAEVKKPGASVKVSCKSSGHTFASHGISWVRQAPGQGLEWMGWISVYNGNTNYAQKFQGRVIMTTDTPTSTAYMELRSLRSDDTAVYYCAKDIPSASYTMDVWGEGTTVTV
VL: QSALTQPRSVSGSPGQSVTISCTGTSSDIGRYDYVSWYHQHPGKAPKLMIYDVTKRPSGVPDRFSGSKSGNTASLTISGLHADDEADYYCCSYAGSFYVFGTGTKVTVL

Columns and labels:
[1] = target: recombinant EEEV E1 glycoprotein (Eastern equine encephalitis virus); assay: ELISA, binding reactivity (FIG. 1)
[2] = target: VEEV virus-like particles (VLPs) (Venezuelan equine encephalitis virus); assay: ELISA, binding reactivity (FIG. 1)
Sequence of VEEV virus-like particles (VLPs) (Venezuelan equine encephalitis virus) (P05674 335-757, chain 1 of 2): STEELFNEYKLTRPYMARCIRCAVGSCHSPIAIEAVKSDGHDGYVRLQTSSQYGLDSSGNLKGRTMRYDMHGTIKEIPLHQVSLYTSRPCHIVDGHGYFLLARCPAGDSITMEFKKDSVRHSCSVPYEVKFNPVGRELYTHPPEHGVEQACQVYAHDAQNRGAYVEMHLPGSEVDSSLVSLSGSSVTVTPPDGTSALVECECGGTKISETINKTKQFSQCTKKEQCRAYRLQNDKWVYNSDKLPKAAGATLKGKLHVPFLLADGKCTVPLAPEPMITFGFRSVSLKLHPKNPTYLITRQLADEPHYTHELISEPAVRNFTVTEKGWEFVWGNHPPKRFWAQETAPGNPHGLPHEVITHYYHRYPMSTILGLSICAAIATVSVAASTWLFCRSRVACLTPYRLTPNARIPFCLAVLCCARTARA
Sequence of VEEV virus-like particles (VLPs) (Venezuelan equine encephalitis virus) (P05674 813-1254, chain 2 of 2): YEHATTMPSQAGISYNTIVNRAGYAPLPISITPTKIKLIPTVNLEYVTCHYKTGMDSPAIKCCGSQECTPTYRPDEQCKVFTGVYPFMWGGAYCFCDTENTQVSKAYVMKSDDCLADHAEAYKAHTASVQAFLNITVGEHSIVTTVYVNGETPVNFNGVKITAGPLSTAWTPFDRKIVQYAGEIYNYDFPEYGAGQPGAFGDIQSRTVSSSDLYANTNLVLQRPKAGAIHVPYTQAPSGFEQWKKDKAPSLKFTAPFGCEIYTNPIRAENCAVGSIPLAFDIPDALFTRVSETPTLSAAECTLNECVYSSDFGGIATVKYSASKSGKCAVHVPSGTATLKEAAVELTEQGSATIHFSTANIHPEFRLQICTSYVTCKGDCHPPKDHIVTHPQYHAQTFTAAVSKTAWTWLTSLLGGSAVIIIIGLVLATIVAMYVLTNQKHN

Binder | EC50 [1] [µg/mL] | EC50 [2] [µg/mL]
B1 | < 0.02 | < 0.02
B2 | < 0.02 | < 0.02
